The values that follow come from patent US20240240160A1, “NOVEL OLIVETOL SYNTHASES FOR C[…]” (priority 2021, published 2024).

Data set [1] has as its system hexanoyl-CoA or butyryl-CoA. Description: High-throughput activity assay of OLS_Aro and its variants in cell lysate. In kind it is biochemical. As to conditions: in the absence of Olivetolic acid Cyclase (OAC). An excerpt:
Single amino acid positions of interest of OLS_Aro were identified based on a 7 Å radial proximity around the active site predicted based on docking results with the tetraketide product into a structural homology model of OLS_Aro. Variants were constructed as a plasmid-based library using specific primers at the positions undergoing mutagenesis, amplifying fragments via Polymerase Chain Reaction (PCR), and circularizing plasmids via Gibson ligation. For site-saturation mutagenesis of selected amino acids sites, a compressed-codon approach was used to eliminate codon redundancy to lower library size. The plasmid-base used was the pZS*vector (Novagen) with expression of the OLS_Aro under control of a pAl promoter and lactose (lac) operator. […]
Single colonies were picked for growth in Luria Bertani (LB) medium in 384-well plates containing with carbenicillin (Carb). […] Cells pellets were stored at −20° C. until ready for assay. […]
Reactions were initiated by addition of cell lysate, then incubated for 20 mins or 1 hr for hexanoyl-CoA and butyryl-CoA, respectively. […] Filtrates analyzed by LC/MS for the quantification of olivetolic acid (OLA), olivetol (OL), and pentyl diacetic acid lactone (PDAL); or divarinic acid (DVA), divarinol (DVL), and propyl diacetic acid lactone (Propyl-DAL). […]
Under the screening conditions described above, products are detected in the low or sub μM range. […]

Data set [2] concerns E. coli derivative strain which overexpressed an acyl-CoA synthetase (fadD) gene and expressed an olivetolic acid cyclase (OAC) from Cannabis sativa. The data set is described as follows: OL, OLA and PDAL production in E. coli from genome-integrated Type-III PKS genes. In kind it is cell-based. On the procedure: To test olivetolic acid production in E. coli, strains comprising a putative OLS gene and an OAC gene from C. sativa were inoculated in multi-well plates containing LB supplemented with 1% glucose and appropriate concentrations of antibiotics. After 6 hours of cultivation at 32° C., the cells were transferred with a 10% inoculum to a P-limited seed medium (see Table 2) and cultivated for ˜18 hours at 32° ° C. to reach an OD of 2.0-4.0. The cultures were transferred with a 20% inoculum in a P-minimal medium (see Table 3) supplemented with 2% glucose and appropriate concentrations of antibiotics. After 3 hours of cultivation at 32° C., the culture was spiked with 4 mM hexanoic acid (˜OD 1.5-2.0). The resulting cultures were then harvested at either 3 hours or 21 hours post hexanoic acid spike; a final OD was taken. 300 μL of butyl acetate containing 500 mg/L undecanoic acid was added to each multi-well plate. The plates were then vortexed for 30 minutes at 1500 rpm and centrifuged for 10 minutes at 4500 rpm. 50 μL of organic layer was transferred to a 96-well plate and derivatized with 50 μL of N,O-Bis(trimethylsilyl)trifluoroacetamide (BSTFA). The plate was then incubated at room temperature for 2 hours to allow for complete derivatization. The samples were then run on GC-FID for analytical quantification of olivetolic acid (OLA), olivetol (OL), PDAL, and hexanoic acid.
Olivetol, PDAL, OLA, HTAL, CBGA and combinations thereof were analyzed by LCMS or LCMS/MS methods using C18 reversed phase chromatography coupled to either EXACTIVE™ (ThermoFisher) or QTRAP® 4500 (Sciex) mass spectrometers.
For reversed phase LCMS, compounds were identified by their LC retention times and MRM transitions specific to the compounds. LCMS/MS analysis was conducted on a Shimadzu UHPLC system coupled with AB Sciex QTRAP 4500 mass spectrometer. Agilent Eclipse XDB C18 column (4.6×3.0 mm, 1.8 μm) was used with a 1-min gradient elution at 1 mL/min using water containing 0.1% ammonia acetate as mobile phase A and 90% methanol containing 0.1% ammonia acetate as mobile phase B. The LC column temperature was maintained at 45° C. Negative ionization mode was used for all the analytes.
Three of the type-III PKS genes from Example 1 were integrated under control of a constitutive promoter into an E. coli derivative strain which overexpressed an acyl-CoA synthetase (fadD) gene and expressed an olivetolic acid cyclase (OAC) from Cannabis sativa.
The in vivo assay procedure and analytical methods were performed as described above.

In data set [3] the test system is hexanoyl-CoA and malonyl-CoA. The data set is described as follows: Specific activity assay of purified type-III polyketide synthases (OLA formation in presence of OAC). In kind it is biochemical. The following applies: hexanoyl-CoA and malonyl-CoA in the presence of OAC; FIG. 3. The procedure:
In this Example, the specific activities of three previously uncharacterized type-III polyketide synthases (PKS) to form olivetolic acid from hexanoyl-CoA and malonyl-CoA in the presence of olivetolic acid cyclase (OAC) were determined and compared to the olivetol synthase (OLS) from C. sativa.
Assays were performed in a total volume of 50 μL in 100 mM Tris, pH 7.5 buffer containing 100 μM malonyl-CoA; 100 µM hexanoyl-CoA; a malonyl-CoA regenerating system comprising malonyl-CoA synthetase, excess malonate, and ATP; and excess purified olivetolic acid cyclase (OAC). The major product in this assay was olivetolic acid (OLA), and the triketide pentyl diacetic acid lactone (PDAL) was a side product. N-His-tagged purified enzymes were assayed under these assay conditions at enzyme concentrations and reaction times suitable for initial rate measurements of product formation. Reactions were initiated by addition of the PKS, then incubated for 30 min. Subsequently, 10 μL of reaction solution was removed and quenched into 15 volumes of 75% acetonitrile containing 0.1% formic acid and internal standards, then centrifuged to pellet denatured protein. Supernatants were transferred to fresh plates for LC-MS analysis of OLA, olivetol (OL), and PDAL as described in the Method section above.

The test system of data set [4] is E. coli derivative strain which overexpressed an acyl-CoA synthetase (fadD) gene and expressed an olivetolic acid cyclase (OAC) from Cannabis sativa. Description: OL, OLA and PDAL production in E. coli from plasmid-expressed Type-III PKS genes. In kind it is cell-based. As to conditions: gene on plasmid. Put shortly: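 E. coli strains expressing codon-optimized Type-III PKS genes (constitutive promoter) plus fadD overexpression and C. sativa OAC, grown at 32° C in P-minimal medium with 2% glucose, spiked with 4 mM hexanoic acid; harvested 3 h or 21 h post-spike. Butyl acetate extracts BSTFA-derivatized, OLA/OL/PDAL quantified by GC-FID.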

Setting [5] is: constitutive promoter, 4 mM hexanoic acid.
The mark [6] stands for this setting: constitutive promoter, culture spiked with 4 mM hexanoic acid.

B1: QDX46968.1: Type-III PKS enzyme (OLS) from Anoectochilus roxburghii, designated OLS_Aro (protein, listed as Anoectochilus roxburghii)
chain: MPSLESIRKAPRADGLASILAIGRANPDNFMEQSSFPDFFFRITGSDHLVDLKKKFQRICDRTAIRKRHFVWNEEFIKANPCFSTFMDNSLNVRQEVAIREIPKLGAEAATKAIKEWGQPKSRITHLIFCTTSGMDLPGADYQLTRILGLNPNVERVMLYQQGCFAGGTTLRLAKCLAESRKGARVLVVCAETTTVLFRAPSEEHQEDLVTQALFADGASAVIVGADPDEEAHEKASFVIFSTSQVLLPDSEGAIGGHVSEGGLLATLHRDVPQLVSKNVGKCLEEAFTPLGISDWNSIFWVPHPGGRAILDQIEERVGLKPEKLTTSRHVLAEYGNMSSVCVHFVLDEMRKKSSKEGKATTGEGLEWGVLFGFGPGLTVETVVLRSVPL
modifications: (1)..(390) QDX46968.1
On to B1, for which, in data set [1], the reaction products result is “the major products are OL and PDAL or DVL and Propyl-DAL”. Further, in data set [2], the “products produced by strains with chromosomally expressed enzyme” value is “produced olivetol (OL), olivetolic acid (OLA) and pentyl diacetic acid lactone (PDAL)”. In addition, the Total was 276 µM in data set [2] (OL + OLA + PDAL) and 1956 µM in data set [4] (OL + OLA + PDAL). Further, the figures for the OL in data set [2] (setting [5]) and in data set [4] (setting [6]) were 98 µM and 597 µM, respectively. The values for the OLA in data set [2] (setting [5]) and in data set [4] (setting [6]) were 136 µM and 823 µM, respectively. Further, the PDAL in data set [2] (setting [5]) turned out to be 42 µM; in data set [4] (setting [6]), 536 µM. Also, the “specific activity to form olivetolic acid compared with OLS from C. sativa” value in data set [3] was “higher specific activities”. The “levels of OLA relative to the E. coli strain with OLS from C. sativa” value in data set [4] was “over two-fold”.
